Results taken from US20140303084.
Residue numbers refer to the chain shown, from its start.

Assays:
[1] = system: T1, RRAPGKLTCLASYCWLF WSGIA PQPPNMRPSV
T1 sequence: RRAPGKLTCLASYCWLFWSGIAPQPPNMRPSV

RRAPGKLTCLASYCWlFWTGIA [2] = system: T2, RRAPGKLTCLASYCWlFWTGIA
T2 sequence: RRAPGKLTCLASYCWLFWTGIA

[3] = system: T3, RRAPGKLTCLASYCWLFWT-Sar-IA
T3 sequence: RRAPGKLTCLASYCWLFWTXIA

[4] = system: T4, RRAPGKLT-Dab-LASY-Asp-WLFWTGIA-CONH2
T4 sequence: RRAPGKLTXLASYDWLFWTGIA

compound 25 = system: T5, compound 25
T5 sequence: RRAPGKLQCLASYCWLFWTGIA

[5] = system: T6, RRAPGKLT-Lys-LASY-Glu-WLFWTGIA-COOH
T6 sequence: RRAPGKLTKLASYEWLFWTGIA

[6] = system: T7, RRAPGKLT-Asp-LASY-Orn-WLFWTGIA-CONH2
T7 sequence: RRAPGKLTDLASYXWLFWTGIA

QQRQIKMSCLASYCWLFGSIPW = system: T8, QQRQIKMSCLASYCWLFGSIPW
T8 sequence: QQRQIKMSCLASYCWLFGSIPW

[7] = system: T9, SRIRTVGPGSRSASGKSTCLASYCWLFWTGIA
T9 sequence: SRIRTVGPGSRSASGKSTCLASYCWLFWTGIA

rRAPGKLTCLASYCWLFSTGIA = system: T10, rRAPGKLTCLASYCWLFSTGIA
T10 sequence: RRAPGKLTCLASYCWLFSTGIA

PGKLQCLASYCWLFWTGIA = system: T11, PGKLQCLASYCWLFWTGIA
T11 sequence: PGKLQCLASYCWLFWTGIA

Ac-KLTCLASYCWLF = system: T12, Ac-KLTCLASYCWLF
T12 sequence: KLTCLASYCWLF

rRASGKLTCLASYCWLFWTGIA = system: T13, rRASGKLTCLASYCWLFWTGIA
T13 sequence: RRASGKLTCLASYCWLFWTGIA

[8] = system: T14, PRIRTVGPGSRSASGKLTCLASYCWLFWTGI
T14 sequence: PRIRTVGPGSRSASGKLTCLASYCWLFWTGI

[9] = system: T15, RSHSLDRMAG RRAPG KLTCLASYCWLFWTGIA
T15 sequence: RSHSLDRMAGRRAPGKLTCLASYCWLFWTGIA

[10] = system: T16, RRAPGKLT-Dab-LASY-Asp-WLFWTGIA-COOH
T16 sequence: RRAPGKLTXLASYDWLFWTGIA

[11] = system: T17, (KLTCLASYCWLFG)2═N-O-(CH2)3-O-N═
T17 sequence: KLTCLASYCWLFG

[12] = system: T18, CGGG-RRAPGKLT-Asp-LASY-Lys-WLFWTGIA
T18 sequence: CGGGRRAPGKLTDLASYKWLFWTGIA

[13] = system: T19, RRAPGKLTCLASYCWLF WTGIA RWPSHRSGPS
T19 sequence: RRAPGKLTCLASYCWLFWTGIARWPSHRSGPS

KLTCLASYCQLV = system: T20, KLTCLASYCQLV
T20 sequence: KLTCLASYCQLV

[14] = system: T21, RRAPGKLTCLASYCWLF WTGLL DYPTPQSHEP
T21 sequence: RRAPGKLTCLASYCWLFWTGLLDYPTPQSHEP

KLTCLASYCFLF = system: T22, KLTCLASYCFLF
T22 sequence: KLTCLASYCFLF

[15] = system: T23, RRAPGKLTCLAS-MeTyr-CWLFWTGIA
T23 sequence: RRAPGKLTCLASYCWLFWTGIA

compound 3 = system: T24, compound 3
T24 sequence: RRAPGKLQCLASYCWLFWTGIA

rRAAGKLTCLASYCWLAATGIA = system: T25, rRAAGKLTCLASYCWLAATGIA
T25 sequence: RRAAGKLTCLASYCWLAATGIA

[16] = system: T26, RRAPGKLTCLASYCWLF WRGFA ERASEDTNQG
T26 sequence: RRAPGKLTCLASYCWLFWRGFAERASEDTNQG

[17] = system: T27, AKQGRPISPDrRAAGKLTCLASYCWLFWTGIA
T27 sequence: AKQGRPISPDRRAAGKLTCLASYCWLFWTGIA

[18] = system: T28, RRAPGCLTALASYCWLFWTGIA-COOH
T28 sequence: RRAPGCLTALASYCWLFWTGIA

[19] = system: T29, RRAPGKLTCLASYCWLFWTGIA-PEG4
T29 sequence: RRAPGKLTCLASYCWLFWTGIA

[20] = system: T30, RRAPG-MeLys-LTCLASYCWLFWTGIA
T30 sequence: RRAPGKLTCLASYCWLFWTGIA

KLTALASYCWLF = system: T31, KLTALASYCWLF
T31 sequence: KLTALASYCWLF

[21] = system: T32, PSIRTVGPGSRSASGKLTCLASYCWLFWTGIA
T32 sequence: T9 sequence with S1P, R2S, S17L

KLTcLASYCWLF = system: T33, KLTcLASYCWLF
T33 sequence: KLTCLASYCWLF

[22] = system: T34, PRTTANRRSS RRAPA KLTCLASYCWLFWTGIA
T34 sequence: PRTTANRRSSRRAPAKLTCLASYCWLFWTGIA

KLTCL-Abu-SYCWLF = system: T35, KLTCL-Abu-SYCWLF
T35 sequence: KLTCLXSYCWLF

KLT-Glu-LASY-Orn-WLF = system: T36, KLT-Glu-LASY-Orn-WLF
T36 sequence: KLTELASYXWLF

[23] = system: T37, RRAPGKLCALASYCWLFWTGIA-COOH
T37 sequence: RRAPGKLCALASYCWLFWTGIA

[24] = system: T38, PRIRTVGPGSRSASGKLTCLASYCWLAWTGIA
T38 sequence: T9 sequence with S1P, S17L, F27A

RRAPGKLTCLASYCWLFwTGIA [25] = system: T39, RRAPGKLTCLASYCWLFwTGIA
T39 sequence: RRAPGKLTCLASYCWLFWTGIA

RRAPGKLQCLASYCWLFATAIA = system: T40, RRAPGKLQCLASYCWLFATAIA
T40 sequence: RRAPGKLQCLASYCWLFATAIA

[26] = system: T41, QWQIAGQVLKRRAPA KLTCLASYCWLFWTGIA
T41 sequence: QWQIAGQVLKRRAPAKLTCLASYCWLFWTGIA

[27] = system: T42, RRAPGKLTCLASYCWLF STGVA THANTTATAQ
T42 sequence: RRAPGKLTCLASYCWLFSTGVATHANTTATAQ

RRAPGKLTCLASyCWLFWTGIA [28] = system: T43, RRAPGKLTCLASyCWLFWTGIA
T43 sequence: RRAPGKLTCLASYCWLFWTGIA

[29] = system: T44, KLLKLLLKLLLKLLK-k-MeLeu-TCLASYCWLF
T44 sequence: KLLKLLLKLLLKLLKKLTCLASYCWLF

[30] = system: T45, RRAPGKLK(PEG2-Biotin)CLASYCWLFWTGIA
T45 sequence: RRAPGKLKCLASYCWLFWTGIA

KLTCLASYCWIF = system: T46, KLTCLASYCWIF
T46 sequence: KLTCLASYCWIF

KLQCLASYCWLFWTGIA = system: T47, KLQCLASYCWLFWTGIA
T47 sequence: KLQCLASYCWLFWTGIA

[31] = system: T48, RRAPGKLTCLASYCWLFWTK(PEG2-Biotin)IA
T48 sequence: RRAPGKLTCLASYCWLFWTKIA

KLTCLASYCQLF = system: T49, KLTCLASYCQLF
T49 sequence: KLTCLASYCQLF

human Factor IXa
Vmax, FXa generation assay [1]: > 3 | Vmax, FXa generation assay; (++) means 1-2 (RRAPGKLTCLASYCWlFWTGIA [2]): (++) | Vmax, FXa generation assay [3]: > 3 | Vmax, FXa generation assay [4]: > 2 | Vmax, FXa generation assay with hFIXa (compound 25): > 2 | Vmax, FXa generation assay; (++) means 1-2 [5]: (++) | Vmax, FXa generation assay [6]: > 2 | Vmax, FXa generation assay; (++) means 1-2 (QQRQIKMSCLASYCWLFGSIPW): (++) | Vmax, FXa generation assay [7]: > 3 | Vmax, FXa generation assay; (++) means 1-2 (rRAPGKLTCLASYCWLFSTGIA): (++) | Vmax, FXa generation assay (PGKLQCLASYCWLFWTGIA): > 2 | Vmax, FXa generation assay; (++) means 1-2 (Ac-KLTCLASYCWLF): (++) | Vmax, FXa generation assay; (++) means 1-2 (rRASGKLTCLASYCWLFWTGIA): (++) | Vmax, FXa generation assay [8]: > 3 | Vmax, FXa generation assay [9]: > 3 | Vmax, FXa generation assay; (++) means 1-2 [10]: (++) | Vmax, FXa generation assay [11]: > 3 | Vmax, FXa generation assay [12]: > 2 | Vmax, FXa generation assay; (++) means 1-2 [13]: (++) | Vmax, FXa generation assay (KLTCLASYCQLV): > 2 | Vmax, FXa generation assay [14]: > 2 | Vmax, FXa generation assay (KLTCLASYCFLF): > 3 | Vmax, FXa generation assay; (++) means 1-2 [15]: (++) | KM (nM) of hFIXa for FX (compound 3): 16 nM | Vmax (mOD/min min), with phospholipids (compound 3): 3.9 mOD/min min | Vmax (mOD/min min), without phospholipids (compound 3): 2.77 mOD/min min | Vmax, FXa generation assay with hFIXa (compound 3): > 3 | kcat (min^-1) of hFIXa for FX, compound at 1 µM (compound 3): 0.0177 min⁻¹ | Δ KM (Km compound/Km buffer) (compound 3): 0.21 | Vmax, FXa generation assay (rRAAGKLTCLASYCWLAATGIA): > 0.8 | Vmax, FXa generation assay [16]: > 2 | Vmax, FXa generation assay [17]: > 3 | Vmax, FXa generation assay [18]: > 2 | Vmax, FXa generation assay [19]: > 2 | Vmax, FXa generation assay; (++) means 1-2 [20]: (++) | Vmax, FXa generation assay; (++) means 1-2 (KLTALASYCWLF): (++) | Vmax, FXa generation assay [21]: > 3 | Vmax, FXa generation assay (KLTcLASYCWLF): > 2 | Vmax, FXa generation assay [22]: > 3 | Vmax, FXa generation assay (KLTCL-Abu-SYCWLF): > 2 | Vmax, FXa generation assay; (++) means 1-2 (KLT-Glu-LASY-Orn-WLF): (++) | Vmax, FXa generation assay [23]: > 2 | Vmax, FXa generation assay [24]: > 3 | Vmax, FXa generation assay; (++) means 1-2 (RRAPGKLTCLASYCWLFwTGIA [25]): (++) | Vmax, FXa generation assay (RRAPGKLQCLASYCWLFATAIA): > 3 | Vmax, FXa generation assay [26]: > 2 | Vmax, FXa generation assay [27]: > 3 | Vmax, FXa generation assay (RRAPGKLTCLASyCWLFWTGIA [28]): > 2 | Vmax, FXa generation assay [29]: > 2 | Vmax, FXa generation assay; (++) means 1-2 [30]: (++) | Vmax, FXa generation assay (KLTCLASYCWIF): > 2 | Vmax, FXa generation assay (KLQCLASYCWLFWTGIA): > 2 | Vmax, FXa generation assay [31]: > 2 | Vmax, FXa generation assay (KLTCLASYCQLF): > 3
